Measured values: PMC4899477
Each block holds one substance with its values, some of them ahead of it.

Biological target: SV2A (SV2)
Experiment: SV-PD (synaptic vesicle pull-down) with blocking peptide, immunoblot densitometry
Conditions: pull down w/ C3WildF (m1), lower value = stronger block of SV capture by the peptide, parent: est. 39, read off a plot

other: SV2 capture by C3WildF in presence of peptide (% SH3) (N = 7): 41 % SH3
Substance: … mimetic blocking peptide (CaV2.2 aa 2319-2328) V6A; P7G; N8G; Y10A

other: SV2 capture by C3WildF in presence of peptide (% SH3) (N = 3): 83 % SH3
Substance: … mimetic blocking peptide (CaV2.2 aa 2319-2328) R4A; R5A

other: SV2 capture by C3WildF in presence of peptide (% SH3) (N = 8): 58 % SH3
Substance: … mimetic blocking peptide (CaV2.2 aa 2319-2328) H1A; Q2A

other: SV2 capture by C3WildF in presence of peptide (% SH3) (N = 8): 110 % SH3
Substance: … mimetic blocking peptide (CaV2.2 aa 2319-2328) R4G; R5G; V6A; P7G; N8G; Y10A

other: SV2 capture by C3WildF in presence of peptide (% SH3) (N = 8): 29 % SH3
Substance: … mimetic blocking peptide (CaV2.2 aa 2319-2328) V6A; Y10A

other: SV2 capture by C3WildF in presence of peptide (% SH3) (N = 8): 74 % SH3
Substance: … mimetic blocking peptide (CaV2.2 aa 2319-2328) H1G; Q2G; V6A; P7G; N8G; Y10A

other: SV2 capture by C3WildF in presence of peptide (% SH3) (N = 6): 44 % SH3
Substance: … mimetic blocking peptide (CaV2.2 aa 2319-2328) V6G; Y10G

other: SV2 capture by C3WildF in presence of peptide (% SH3) (N = 5): 44 % SH3
Substance: … mimetic blocking peptide (CaV2.2 aa 2319-2328) V6A; P7A; N8A; G9A; Y10A

other: SV2 capture by C3WildF in presence of peptide (% SH3) (N = 6): 28 % SH3
Substance: … mimetic blocking peptide (CaV2.2 aa 2319-2328) V6G; P7A; N8A; G9A; Y10G
